# Assay results reported in paper PMC3035459 (Nucleic Acids Research, 2010).
# B1: Methanocaldococcus jannaschii O-phosphoseryl-tRNA kinase (enzyme, UniProt Q58933 1-248, looked up)
# chain: MLIILTGLPGVGKSTFSKNLAKILSKNNIDVIVLGSDLIRESFPVWKEKYEEFIKKSTYRLIDSALKNYWVIVDDTNYYNSMRRDLINIAKKYNKNYAIIYLKASLDVLIRRNIERGEKIPNEVIKKMYEKFDEPGKKYKWDEPFLIIDTTKDIDFNEIAKKLIEKSKEIPKFYVLEENKNKNNNISDKIDKETRKIVSEYIKSKKLDKDKIKEVVELRKEFLKKIKKMEEVDADRVLKEFKDLLNSY
# Molecular target: the molecule itself
# Test: crystal structure
protein,measurement,value
B1,stoichiometry N,2
